# Data reported in PMC6733264 (ACS chemical biology, 2019).
# Ends that are not written are not given here.
# B1: Braftide-Cy3 (peptide)
# peptide: TRHVNILLFM
# modifications: also: Cy3 label, end not given here
# Target: kinase domain of BRAF^WT (human, UniProt P15056 457-717)
# Assay: other fluorescence titration
# kinase domain of BRAF^WT, sequence (P15056 whole entry, looked up, the tested form may be a part): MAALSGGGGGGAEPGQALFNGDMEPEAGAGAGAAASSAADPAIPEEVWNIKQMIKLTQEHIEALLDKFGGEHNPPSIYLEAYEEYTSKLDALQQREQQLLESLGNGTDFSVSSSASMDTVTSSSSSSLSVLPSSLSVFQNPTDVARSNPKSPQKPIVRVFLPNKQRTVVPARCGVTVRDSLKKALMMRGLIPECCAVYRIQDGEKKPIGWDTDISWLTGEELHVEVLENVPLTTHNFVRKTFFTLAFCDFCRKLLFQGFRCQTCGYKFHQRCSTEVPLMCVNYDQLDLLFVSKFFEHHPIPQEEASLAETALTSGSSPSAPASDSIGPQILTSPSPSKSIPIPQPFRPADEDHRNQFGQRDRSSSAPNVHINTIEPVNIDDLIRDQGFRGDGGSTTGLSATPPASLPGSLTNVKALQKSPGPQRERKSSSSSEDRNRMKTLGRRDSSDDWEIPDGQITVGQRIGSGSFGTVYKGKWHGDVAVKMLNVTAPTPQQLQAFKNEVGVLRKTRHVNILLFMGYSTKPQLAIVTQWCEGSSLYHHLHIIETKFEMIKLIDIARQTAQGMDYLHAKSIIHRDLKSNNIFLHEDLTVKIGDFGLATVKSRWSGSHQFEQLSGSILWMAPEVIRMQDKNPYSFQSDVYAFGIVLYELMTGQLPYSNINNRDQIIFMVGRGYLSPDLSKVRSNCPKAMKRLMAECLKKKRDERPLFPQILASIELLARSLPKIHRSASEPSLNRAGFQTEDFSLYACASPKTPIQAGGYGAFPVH
binder,measurement,value
B1,Kd,6.69 µM
